Reference: US20200062847A1 (XIANGTAN TENGHUA BIOSCIENCE, published 2020)

T1: mouse PD-1 (mouse, UniProt Q02242 25-167, limits assumed)
T1 sequence (looked up): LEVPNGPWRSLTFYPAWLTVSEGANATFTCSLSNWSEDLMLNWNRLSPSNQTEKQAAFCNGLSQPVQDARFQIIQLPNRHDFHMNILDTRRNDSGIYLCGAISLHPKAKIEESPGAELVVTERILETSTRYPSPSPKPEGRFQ


Legend:
recombinant human PD-1 [1] = target: T2, recombinant human PD-1 (human, UniProt Q15116 25-167, limits assumed); test: SPR (Biacore), antibody captured via anti-human IgG
T2 construct: also called human PD-1 protein; soluble PD-1
Procedure: This technology allows the label-free determination of the microscopic rate constants for binding (kₐ) and dissociation (kd) of a ligand to a receptor. […] The kinetic traces were evaluated with the Biacore™ T2000. The full set of these traces with increasing concentrations is taken together and is called a run. Two zero concentration samples (blank runs) were included in each analyte concentration series to allow double-referencing during data evaluation. The kinetic rate constants for association (kₐ) and dissociation (kd) as well as the dissociation equilibrium constant (KD) were calculated.

recombinant human PD-1 [2] = target: T2, recombinant human PD-1; test: competition ELISA on coated human PD-1, antibody titrated against 50 ng/ml Nivolumab as competitor; EC50 estimated at half-maximal absorbance
Procedure: The assay was conducted essentially as follows. […] HRP-conjugated anti-human antibody was added and incubated.

mouse PD-1 = target: T1, mouse PD-1; test: ELISA

T2 sequence (Q15116 25-167 limits assumed): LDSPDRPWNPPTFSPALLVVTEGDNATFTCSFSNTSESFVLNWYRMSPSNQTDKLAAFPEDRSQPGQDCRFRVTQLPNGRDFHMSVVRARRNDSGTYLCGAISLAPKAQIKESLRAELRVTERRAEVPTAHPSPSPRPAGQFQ

koff (recombinant human PD-1 [1]) [s⁻¹] | kon (recombinant human PD-1 [1]) [M⁻¹ s⁻¹] | EC50 (recombinant human PD-1 [2]) [nM] | binding result (mouse PD-1) | Binder
3.9e-06 | 1.22e+06 | 0.14 | – | Abs-h-924 (antibody, V domains shown, also called humanized anti-human-PD-1 recombinant antibody Abs-h-924) VH: QVQLVESGGGVVQPGRSLRLSCAASGFTFSSYGMHWVRQAPGKGLEWVAVISYDGSNKYYADSVKGRFTISRDNSKNTLYLQMNSLRAEDTAVYYCARYYYYYGMDVWGQGTTVTVSS VL: EIVLTQSPATLSLSPGERATISCRGSQSLSSYLAWYQQRPGQAPRLLIYDVSNRATGIPARFSGSGSGTDFTLTISGLEPEDFAVYYCQQRTNWPRAFGQGTKVEIKR
3.2e-06 | 1.19e+06 | 0.15 | – | Abs-h-925 (antibody, V domains shown, also called humanized anti-human-PD-1 recombinant antibody Abs-h-925) VH: QVQLVDSGGGVVQPGRSLRLSCAASAFTFSSYAMHWVRQAPGKGLEWVAVISYDGSNKYYADSVKGRFTISRDNSKNTLYLQMNSLRAEDTAVYYCARYYYYYYMDVWGKGTTVTVSS VL: EIVLTQSPATLSLSPGERATLSCRASQSVSSYLAWYQQKPGQAPRLLIYEASNRATGIPARFSGSGSGTDFTLTISSLEPEDFAVYYCQQRTNWPPAFGQGTKVEIKR
– | – | – | no binding | Abs-r-924 (antibody, V domains shown, Rabbit recombinant antibody expressed in HEK293; also called rabbit anti-human-PD-1 recombinant antibody Abs-r-924) VH: QESVKESGGGLVKPGDTLTLTCKVSGFSISSYGMHWVRQAPGKGLEWIGVISYDGSNKYYADSVKGRFTISRNTNQNTVTLKMTSLTADDTATYFCARYYYYYGMDVWGQGTLVTVSS VL: EIVLTQTPSSVSAAVGSTVTINCRGSQSLSSYLAWYQQKPGQRPKLLIYDVSNRATGVPRRFKGSGSGTQFTLTISGVQADDAATYYCQQRTNWPRAFGGGTKVDVKG
7.9e-06 | 1.15e+06 | 0.41 | – | Abs-h-923 (antibody, V domains shown) VH: QVQLVQSGAEVKKPGASVKVSCKASGYTFTSYAMHWVRQAPGQRLEWMGWSNAGNGNTKYSQEFQGRVTITRDTSASTAYMELSSLRSEDMAVYYCARYWYFDLWGRGTLVTVSS VL: EIALTQSPATLSLSPGERATLSCRASQSGSSFVAWYQQKPGQAPRLLIYANNKRETGIPARFSGSGSGTDFTLTISSLEPEDFAVYYCGTYTDSPPTFGQGTKVEIKR
